Measurements: patent US8748182B2, “Mutant proteins and methods for producing them” (Heptares Therapeutics Limited, priority 2007, dated 2014)
Numbering of substitutions follows the chain as printed. Names may count otherwise.

B1: Rag 1: A2aR with A184L/R199A/L272A (protein, UniProt P29274 1-412, looked up, variant A184L R199A L272A)
Adenosine receptor A2a: MPIMGSSVYITVELAIAVLAILGNVLVCWAVWLNSNLQNVTNYFVVSLAAADIAVGVLAIPFAITISTGFCAACHGCLFIACFVLVLTQSSIFSLLAIAIDRYIAIRIPLRYNGLVTGTRAKGIIAICWVLSFAIGLTPMLGWNNCGQPKEGKNHSQGCGEGQVACLFEDVVPMNYMVYFNFFLCVLVPLLLMLGVYLAIFLAARRQLKQMESQPLPGERARSTLQKEVHAAKSLAIIVGLFALCWLPLHIINCFTFFCPDCSHAPLWLMYAAIVLSHTNSVVNPFIYAYRIREFRQTFRKIIRSHVLRQQEPFKAAGTSARVLAAHGSDGEQVSLRLNGHPPGVWANGSAPHPERRPNGYALGLVSGGSAQESQGNTGLPDVELLSHELKGVCPEPPGLDDPLAQDGAGVS
B2: Rant 5: A2aR with A54L/T88A/V239A (protein, UniProt P29274 1-412, looked up, variant A54L T88A V239A)
Adenosine receptor A2a: B1 Adenosine receptor A2a with A54L, T88A, L184A, A199R, V239A, A272L
B3: G123A: A2aR point mutant (protein, UniProt P29274 1-412, looked up, variant G123A)
Adenosine receptor A2a: B1 Adenosine receptor A2a with G123A, L184A, A199R, A272L
B4: P149A: A2aR point mutant (protein, UniProt P29274 1-412, looked up, variant P149A)
Adenosine receptor A2a: B1 Adenosine receptor A2a with P149A, L184A, A199R, A272L
B5: E151A: A2aR point mutant (protein, UniProt P29274 1-412, looked up, variant E151A)
Adenosine receptor A2a: B1 Adenosine receptor A2a with E151A, L184A, A199R, A272L
B6: G152A: A2aR point mutant (protein, UniProt P29274 1-412, looked up, variant G152A)
Adenosine receptor A2a: B1 Adenosine receptor A2a with G152A, L184A, A199R, A272L
B7: A204L: A2aR point mutant (protein, UniProt P29274 1-412, looked up, variant A204L)
Adenosine receptor A2a: B1 Adenosine receptor A2a with L184A, A199R, A204L, A272L
B8: A231L: A2aR point mutant (protein, UniProt P29274 1-412, looked up, variant A231L)
Adenosine receptor A2a: B1 Adenosine receptor A2a with L184A, A199R, A231L, A272L
B9: L167A: A2aR point mutant (protein, UniProt P29274 1-412, looked up, variant L167A)
Adenosine receptor A2a: B1 Adenosine receptor A2a with L167A, L184A, A199R, A272L
B10: L235A: A2aR point mutant (protein, UniProt P29274 1-412, looked up, variant L235A)
Adenosine receptor A2a: B1 Adenosine receptor A2a with L184A, A199R, L235A, A272L
B11: V239A: A2aR point mutant (protein, UniProt P29274 1-412, looked up, variant V239A)
Adenosine receptor A2a: B1 Adenosine receptor A2a with L184A, A199R, V239A, A272L
B12: A184L: A2aR point mutant (protein, UniProt P29274 1-412, looked up, variant A184L)
Adenosine receptor A2a: B1 Adenosine receptor A2a with A199R, A272L
B13: R199A: A2aR point mutant (protein, UniProt P29274 1-412, looked up, variant R199A)
Adenosine receptor A2a: B1 Adenosine receptor A2a with L184A, A272L
B14: A203L: A2aR point mutant (protein, UniProt P29274 1-412, looked up, variant A203L)
Adenosine receptor A2a: B1 Adenosine receptor A2a with L184A, A199R, A203L, A272L
B15: L208A: A2aR point mutant (protein, UniProt P29274 1-412, looked up, variant L208A)
Adenosine receptor A2a: B1 Adenosine receptor A2a with L184A, A199R, L208A, A272L
B16: Q210A: A2aR point mutant (protein, UniProt P29274 1-412, looked up, variant Q210A)
Adenosine receptor A2a: B1 Adenosine receptor A2a with L184A, A199R, Q210A, A272L
B17: S213A: A2aR point mutant (protein, UniProt P29274 1-412, looked up, variant S213A)
Adenosine receptor A2a: B1 Adenosine receptor A2a with L184A, A199R, S213A, A272L
B18: Rant17: A2aR with A54L+K122A+L235A (protein, UniProt P29274 1-412, looked up, variant A54L K122A L235A)
Adenosine receptor A2a: B1 Adenosine receptor A2a with A54L, K122A, L184A, A199R, L235A, A272L
B19: Rant19: A2aR with A54L, T88A, V239A+A204L (protein, UniProt P29274 1-412, looked up, variant A54L T88A V239A A204L)
Adenosine receptor A2a: B1 Adenosine receptor A2a with A54L, T88A, L184A, A199R, A204L, V239A, A272L

Assay: Thermostability of solubilised adenosine A2a receptor and mutants (radioligand binding after or during heating)
Format: physicochemical
Settings: 1% DDM (no glycerol), apo-state; S.D. <1° C.
Method in brief: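 Solubilised A2aR mutants heated, then assayed for agonist and antagonist radioligand binding after the heating step (ligand(−) format); a ligand(+) format was also used. Thermostability expressed as Tm (° C), with ZM241385 bound where indicated.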

Molecule | Tm (° C.) − agonist | Tm (° C.) − antagonist
B1 | 26 °C | –
B2 | – | 42 °C

Same assay, conditions: 1% DDM (no glycerol), ligand-occupied state; S.D. <1° C.

Molecule | Tm (° C.) + agonist | Tm (° C.) + antagonist
B1 | 34 °C | –
B2 | – | 46 °C

Same assay, conditions: Ligand(−) format, binding after the heating step

Molecule | thermostability assayed with 3H-ZM241385 (antagonist) | thermostability measured with 3H-NECA (agonist)
B3 | improved thermostability | –
B4 | improved thermostability | –
B5 | improved thermostability | –
B6 | improved thermostability | –
B7 | improved thermostability | –
B8 | improved thermostability | –
B9 | – | improved thermostability
B10 | improved thermostability | –
B11 | improved thermostability | –
B12 | – | improved thermostability
B13 | – | improved thermostability
B14 | improved thermostability | improved thermostability
B15 | – | improved thermostability
B16 | – | improved thermostability
B17 | – | improved thermostability

Same assay, conditions: ZM241385 bound

Molecule | Tm (ZM241385 bound)
B18 | 48 °C
B19 | 47 °C

Assay: Thermostability assay of detergent-solubilised βAR34-424 and mutants expressed in E. coli ([3H]-DHA binding after heating 30 min)
Settings: DDM-solubilised, heated without ligand
Description: To determine Tm in the absence of ligand (apo-state, discontinuous lines), detergent-solubilised receptors were incubated for 30 minutes at the temperatures indicated before carrying out the binding assay. […] Data points are from duplicates measurements in a representative experiment.
Binding assays were performed using [^3H]-dihydroalprenolol (DHA) as radioligand as described under “Methods”. Samples were heated for 30 minutes at different temperatures before the assay. […] Data points are from duplicates of one single experiment. This experiment has been repeated several times with similar results.
Expression of βAR and the mutants was performed in XL10 cells (Stratagene). Cultures of 50 ml of 2×TY medium containing ampicillin (100 μg/ml) were grown at 37° C. with shaking until OD600=3 and then induced with 0.4 mM IPTG. Induced cultures were incubated at 25° C. for 4 h and then cells were harvested by centrifugation at 13,000×g for 1 min (aliquots of 2 ml) and stored at −20° C. For the assays, cells were broken by freeze-thaw (five cycles), resuspended in 500 μl of buffer [20 mM Tris pH 8, 0.4 M NaCl, 1 mM EDTA and protease inhibitors (Complete™, Roche)]. After an incubation for 1 h at 4° C. with 100 μg/ml lysozyme and DNase I (Sigma), samples were solubilized with 2% DDM on ice for 30 minutes. Insoluble material was removed by centrifugation (15,000×g, 2 min, 4° C.) and the supernatant was used directly in radioligand binding assays.
Single point binding assays contained 20 mM Tris pH 8, 0.4 M NaCl, 1 mM EDTA, 0.1% DDM (or corresponding detergent) with 50 nM [^3H]-DHA and 20-100 μg membrane protein in a final volume of 120 μl; equilibration was for 1 h at 4° C. Thermostability was assessed by incubating the binding assay mix, with or without [^3H]-DHA at the specified temperature for 30 minutes; reactions were placed on ice and [^3H]-DHA added as necessary and equilibrated for a further hour. […] Radioactivity was counted on a Beckman LS6000 liquid scintillation counter and data were analyzed by nonlinear regression using Prism software (GraphPad).

Molecule | increase in Tm compared to βAR34-424 (native protein)
Y227A: βAR34-424 point mutant Y227A | 8 °C
m7-5: βAR34-424 with M90V, Y227A | 13 °C
M90A: βAR34-424 point mutant M90A | 8 °C

Same assay, conditions: Table 1; heated 30 min without ligand, then [3H]-DHA binding; DDM-solubilised, E. coli; mean ± S.E. from duplicates

Molecule | Tm (° C.)
m10-8: βAR34-424 with R68S, M90V, V230A, F327A, A334L | 47.3 ± 1.4 °C
m6-11: βAR34-424 with R68S, A282L, A334L | 39.1 ± 0.5 °C
m7-7: βAR34-424 with M90V, Y227A, F338M | 45.2 ± 2.0 °C
m6-9: βAR34-424 with R68S, Y227A, A234L, A282L, A334L | 43.7 ± 0.4 °C
m6-5: βAR34-424 with R68S, A234L, A282L, A334L | 41.9 ± 0.5 °C
m6-10: βAR34-424 with R68S, Y227A, A282L, A334L | 47.4 ± 1.1 °C
m7-1: βAR34-424 with M90V, A282L, F338M | 43.0 ± 0.8 °C
m7-5: βAR34-424 with M90V, Y227A | 45.2 ± 1.0 °C
m4-7: βAR34-424 with G67A, G98A, V230A | 38.0 ± 1.2 °C
m7-2: βAR34-424 with M90V, A282L | 38.9 ± 0.6 °C
m7-6: βAR34-424 with M90V, I129V | 40.0 ± 0.6 °C
m6-4: βAR34-424 with R68S, Y227A, A234L, A282L | 41.6 ± 0.1 °C
m10-4: βAR34-424 with R68S, M90V, V230A, A334L | 46.9 ± 1.0 °C

Same assay, conditions: Table 2; heated 30 min without ligand, then [3H]-DHA binding; DDM-solubilised, E. coli; mean ± S.E. from duplicates

Molecule | Tm (° C.)
m18: βAR34-424 with R68S, M90V, Y227A, V230A, A282L, F327A, F338M | 49.6 °C
m20: βAR34-424 with R68S, M90V, F327A, A334L | 48.4 ± 0.7 °C
m17: βAR34-424 with R68S, M90V, Y227A, V230A, F327A, A334L | 48.2 ± 1.4 °C
m19: βAR34-424 with R68S, M90V, Y227A, A282L, F327A, F338M as printed (same as m23) | 49.0 ± 0.8 °C
m21: βAR34-424 with R68S, M90V, Y227A, F327A, A334L | 47.0 ± 1.3 °C

Same assay, conditions: m4-1 to m4-7 to m4-2; m18 to m23

Molecule | further increase in Tm on adding one mutation to the preceding mutant
m4-7: βAR34-424 with G67A, G98A, V230A | 2 °C
